Results as given in patent publication US20160194402A1 (ADURO BIOTECH HOLDINGS EUROPE B V, published 2016).

T1: human CD70 (cellularly expressed hCD70) (human, UniProt P32970 1-193)
T1 construct: whole, on cells; also called CHO-K1.hCD70; CHO-K1.CD70
T1 sequence (looked up): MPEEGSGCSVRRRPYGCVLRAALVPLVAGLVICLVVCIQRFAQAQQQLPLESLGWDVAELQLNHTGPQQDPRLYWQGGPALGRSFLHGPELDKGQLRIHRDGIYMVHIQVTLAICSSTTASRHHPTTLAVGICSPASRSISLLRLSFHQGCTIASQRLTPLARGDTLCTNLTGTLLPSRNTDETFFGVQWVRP


Key:
[1] = target: T1, human CD70 (cellularly expressed hCD70); experiment: cell ELISA on CHO-K1.hCD70 cells, goat anti-mouse IgG-HRP
Experimental: Cell-based ELISA experiments using purified hCD70 antibodies were performed to determine binding activities of hCD70 to cellularly expressed hCD70. In this cell-ELISA, all incubation steps were followed by a wash step with PBST (PBS with 0.01% Tween 20). CHO-K1.hCD70 cells were seeded (40,000 cells/well) in tissue culture plates and incubated overnight at 37° C. The next day, culture medium was removed and cells were incubated for one hour with (dilutions of) purified antibodies at 37° C. Next, cells were washed with PBST and incubated for one hour at 37° C. with 1:1,000 goat-anti-mouse IgG-HRP (Southern Biotechnology, #1030-05). Subsequently, cells were washed 6 times with PBST and anti-hCD70 immunoreactivity was visualized with 100 μl TMB Stabilized Chromagen (Invitrogen, cat. no. SB02). Reactions were stopped with 100 μl 0.5 M H₂SO₄ and absorbances were read at 450 and 620 nm. […] Calculated EC₅₀, representing the concentration at which 50% of the total binding signal is observed are represented in Table 3 using 2F2 anti-hCD70 antibody (Pelicluster) as a reference.

[2] = target: recombinant hCD70 (CD70(h)-muCD8 fusion Protein, Ancell, cat. no. ANC-537-030) (mouse; human); experiment: cell-based competition ELISA: biotinylated CD70(h)-muCD8 (0.5 ug/ml) binding to CHO-K1.CD27 cells, Streptavidin-HRP
[3] = target: T1, human CD70 (cellularly expressed hCD70); experiment: cell ELISA on CHO-K1.hCD70 cells, goat anti-mouse IgG-HRP (reference antibody, Example 3)
[4] = target: recombinant hCD70 (CD70(h)-muCD8 fusion Protein, Ancell, cat. no. ANC-537-030) (mouse; human); experiment: cell-based competition ELISA: biotinylated CD70(h)-muCD8 (0.5 ug/ml) binding to CHO-K1.hCD27 cells, Streptavidin-HRP (reference antibody, Example 3)
[5] = target: recombinant hCD70 (CD70(h)-muCD8 fusion Protein, Ancell, cat. no. ANC-537-030) (mouse; human); experiment: cell-based competition ELISA: biotinylated CD70(h)-muCD8 (0.5 ug/ml) binding to CHO-K1.hCD27 cells, Streptavidin-HRP
[6] = target: T2, recombinant hCD70 (CD70(h)-muCD8 fusion Protein, Ancell, cat. no. ANC-537-030) (mouse; human, UniProt P01731 28-196; P32970 39-193, biotin (position not stated; detected with Streptavidin-HRP, bound to streptavidin beads)); experiment: as above
T2 construct: Bought fusion protein; also called CD8-hCD70; biotin-hCD8-hCD70 recombinant protein
Experimental: Blocking properties of the purified antibodies were studied using a cell-based competition assay. The CHO-K1.CD27 assay works along the following principles: CHO-K1.CD27 cells were seeded (40,000 cells/well) in a 96-well plate and incubated overnight at 37° C. After medium removal, 50 μl recombinant hCD70 (CD70(h)-muCD8 fusion Protein (Ancell, cat. no. ANC-537-030) (0.5 μg/ml) and 50 μl of different dilutions of purified anti-hCD70 antibodies were added.
After 1 hour incubation at room temperature, the wells were washed 3 times with PBST. Next, 100 μl/well Streptavidin-HRP conjugate (BD Pharmingen, cat. no. 554066) (1:5,000) was added and cells were incubated for one hour at 37° C. After 6 final washes with PBST TMB Stabilized Chromagen (Invitrogen, cat. no. SB02) (100 μl/well) was added. The reaction was stopped by the addition of 100 μl 0.5 M H₂SO₄. Absorbencies were read at […] and 620 nm. Reference antibody: anti-hCD70, clone 2F2 (Pelicluser). […] Calculated IC₅₀ values of hCD70 antibodies and the reference 2F2 anti-hCD70 antibody, which represent the concentration at which half of the inhibition is observed, are presented in Table 3.

T2 sequence (P01731 other isoform, or with tags, fused parts or gaps): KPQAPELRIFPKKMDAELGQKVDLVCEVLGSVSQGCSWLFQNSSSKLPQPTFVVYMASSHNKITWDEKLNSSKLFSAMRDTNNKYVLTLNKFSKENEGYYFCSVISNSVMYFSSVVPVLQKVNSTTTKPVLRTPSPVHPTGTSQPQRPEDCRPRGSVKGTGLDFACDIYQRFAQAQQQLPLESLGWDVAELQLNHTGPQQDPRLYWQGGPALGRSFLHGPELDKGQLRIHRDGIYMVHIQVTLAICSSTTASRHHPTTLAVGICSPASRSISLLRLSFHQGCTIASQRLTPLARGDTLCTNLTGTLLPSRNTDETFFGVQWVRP

EC50 [1] [pM] | IC50 [2] [pM] | EC50 [3] [pM] | IC50 [4] [pM] | IC50 [5] [pM] | IC50 [6] [pM] | Molecule
14 | 400 | 130 | < 2600 | – | – | 2F2 (CLB70/2) (antibody)
17 | 960 | – | – | – | – | BU69 (antibody)
35 | 1500 | – | – | – | – | Ki-24 (antibody)
340 | – | – | – | > 330000 | – | hCD70.39 (antibody, part only; not given: light chain, IgG1, V domains shown, part only) VH: QGQMQQSGAELVKPGASVKLSCKTSGFTFSSNYISWLKQKPGQSLEWIAWIYAGTGGTNYNQKFTGKAQLTVDTSSSTAYIQFSSLTTEDSAIYYCARLYGYYFDYWGQGTTLTVSS
170 | – | – | – | – | > 330000 | hCD70.23 (antibody, IgG1, V domains shown, Mouse monoclonal purified from hybridoma supernatant) VH: QVQLQQSGPEVVRPGVSVKISCKGSGYTFTDYAMHWVKQSHAKSLEWIGVISTYNGNTNYNQKFKGKATMTVDKSSSTAYMELARLTSEDSAIYYCARDYLDYWGQGTTLTVSS VL: DIVMTQSPSSLTVTAGEKVTMSCKSSQSLLNSGNQKNYLTWYQQKPGQPPKLLIYWASTRESGVPDRFTGSGSGTDFTLTISSVQAEDLAVYYCQNDYSYPFTFGSGTKLEIK
260 | – | – | – | – | > 330000 | hCD70.21 (antibody, IgG1, V domains shown, Mouse monoclonal purified from hybridoma supernatant) VH: QVQLQQPGAELVKPGTSVKLSCKASGYNFTSYWINWVKLRPGQGLEWIGDIYPGSGSTNYNEKFKSKATLTVDTSSSTAYMQLSSLASEDSALYYCARGHYGSSYGFDYWGQGTTLTVSS VL: DIVLTQSPASLAVSLGQRATISCRASKSVSTSGYSYMHWYQQKPGQPPKLLIYLASNLESGVPARFSGSGSGTDFTLNIHPVEEEDAATYYCQHSRELPLTFGAGTKLELK
300 | – | – | – | – | > 330000 | hCD70.36 (antibody, IgG1, V domains shown, Mouse monoclonal purified from hybridoma supernatant) VH: EVQLQQSGPELVKTGASVKISCKASGYSFTGYYMHWVKQSHGKSLEWIGYISCYNGATSYNQKFKGKATFTVDTSSSTAYMQFNSLTSEDSAVYYCARGGNWDVEYAMDYWGQGTSVTVSS VL: DIVLTQSPASLAVSLGQRATISCRASKSVSTSGYSYMHWYQQKPGQPPKLLIYLASNLESGVPARFSGSGSGTDFTLNIHPVEEEDAATYYCQHSRELPFTFGSGTKLEIK
150 | – | – | – | – | 76000 | hCD70.32 (antibody, IgG1, V domains shown, Mouse monoclonal purified from hybridoma supernatant) VH: QVQLQQSGDDLVKPGASVKLSCKASGYTFTSYWINWIKQRPGQGLEWIGRIAPGSGSTYYSKIFKGKATLTVDTSSSTAYIQLSSLSSEDSAVYFCSRGDYGDYWGQGTTLTVSS VL: DIVMTQSHKFMSTSVGDRVSITCKASQDVGTAVAWYQQKPGESPKLLIYWASTRHTGVPDRLTGSGSGTDFTLTISNVHSEDLADYFCQQYSGYPLTFGDGTKLEL
210 | – | – | – | – | 109000 | hCD70.34 (antibody, IgG1, V domains shown, Mouse monoclonal purified from hybridoma supernatant) VH: QVQLKESGPGLVAPSQSLSITCTVSGFSLTSYGVSWVRQPPGKGLEWLGVIWGDGTTNYHSALISRLSISKDNSKSQVFLKLNSLQIDDTATYYCAKPGDYYGSSYWYFDVWGAGTTVTVSS VL: DVVLTQTPLSLPVNIGDQASISCKSTKSLLNSDGFTYLDWYLQKPGQSPQLLIYFVSNRFSGVPDRFSGSGSGTDFTLKISRVEADDLGVYYCFQSNYLPYTFGGGTKLEIK
